Holding throughout (settings): both partners purified
Test [1] concerns the target T1, lysozyme (Gallus gallus (hen egg white), by PDB …, UniProt P00698).
T1 construct: lysozyme, the antigen of the anti-lysozyme antibody HyHEL-10; also called antigen
Put plainly: ITC; antibody (about 30 uM) titrated into lysozyme (about 2 uM), 25 injections of 10 ul; PBS (20 mM, pH 7.4), 143 mM NaCl; 298 K (25 °C).

For test [2], the target named is T1, lysozyme. Kind of test: ITC; antibody (about 30 uM) titrated into lysozyme (about 2 uM), 25 injections of 10 ul; PBS (20 mM, pH 7.4), 143 mM NaCl; 303 K (30 °C).
The target in test [3] is T1, lysozyme. Kind of test: ITC; antibody (about 30 uM) titrated into lysozyme (about 2 uM), 25 injections of 10 ul; PBS (20 mM, pH 7.4), 143 mM NaCl; 293 K (20 °C).
Test [4] concerns the target T1, lysozyme. The description is as above. This is another data set of the same source.

T1 sequence (P00698 19-147): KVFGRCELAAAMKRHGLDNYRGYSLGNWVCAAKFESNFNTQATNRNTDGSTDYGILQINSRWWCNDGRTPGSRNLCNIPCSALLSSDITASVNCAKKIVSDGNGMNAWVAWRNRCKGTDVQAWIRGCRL

B1: HyHEL-10 Fv fragment, H:R71A mutant (antibody, V domains shown)
VH: DVQLQESGPSLVKPSQTLSLTCSVTGDSITSDYWSWIRKFPGNRLEYMGYVSYSGSTYYNPSLKSRISITADTSKNQYYLDLNSVTTEDTATYYCANWDGDYWGQGTLVTVSA
VL: DIVLTQSPATLSVTPGNSVSLSCRASQSIGNNLHWYQQKSHESPRLLIKYASQSISGIPSRFSGSGSGTDFTLSINSVETEDFGMYFCQQSNSWPYTFGGGTKLEIK
notes: as the VH of m1, with R71A; as the VL of m1; Fv fragment; the text throughout has H:R71A
Take B1: the dH was -27.1 ± 0.086 kcal/mol in test [1], -31.1 ± 0.347 kcal/mol in test [2] and -23.78 ± 0.0598 kcal/mol in test [3].

B2: HyHEL-10 Fv fragment, L:R45A mutant (antibody, V domains shown)
VH: DVQLQESGPSLVKPSQTLSLTCSVTGDSITSDYWSWIRKFPGNRLEYMGYVSYSGSTYYNPSLKSRISITRDTSKNQYYLDLNSVTTEDTATYYCANWDGDYWGQGTLVTVSA
VL: DIVLTQSPATLSVTPGNSVSLSCRASQSIGNNLHWYQQKSHESPALLIKYASQSISGIPSRFSGSGSGTDFTLSINSVETEDFGMYFCQQSNSWPYTFGGGTKLEIK
notes: as the VH of m1; as the VL of m1, with R45A; Fv fragment; the text throughout has L:R45A
With B2, the dH was -16.46 ± 0.0502 kcal/mol in test [4], -17.57 ± 0.0359 kcal/mol in test [1] and -18.97 ± 0.055 kcal/mol in test [2].

For the origin of these results see article PMC5577056 (Scientific Reports, 2017).
